Measurements as given in patent US8821862B2, “Soluble β-N-acetylglucosaminidase based antibiofilm compositions and uses thereof” (Kane Biotech Inc., priority 2002, dated 2014).

Columns and labels:
[1] = test system: E. coli csrA luxCDABE kan^r biofilm; assay: Bioluminescent E. coli biofilm on filter disc, luminescence; format: cell-based; conditions: for luminescence, Day 1 / luminescence, Day 2 / luminescence, Day 3 / luminescence, Day 4: DispersinB 50 μg/ml
Description: E. coli TRMG1655 [csrA::kan^r] strain was transformed with transposon, mini-TN5 luxCDABE::kan^r for luciferase expression (Kadurugamuwa et al., 2005, Infect. Immun. 73: 3878-3887), and the operon integrated into the chromosome. Integration was confirmed by amplification of the genomic DNA upstream of the transposon by inverse PCR using Ssp1-digested genomic DNA. Primers UTCF1 (5′-[…]-3′; SEQ ID NO:13) and UTCR (5′-[…]-3′; SEQ ID NO:14) were used to amplify the upstream region using Pfu DNA polymerase (Sigma-Oligosynthesis, St. Louis, Mo.). The lux operon is derived from Photorhabdus luminescence and was obtained from Xenogen Inc. (Alameda, Calif.). These bioluminescent bacteria allow real-time monitoring by noninvasive imaging of biofilms, either in vitro or in vivo.
A cell suspension of 10^6 E. coli csrA luxCDABE kan^r was used to inoculate a filter disc (Millipore Corporation, Billerica, Mass.). The E. coli biofilm was maintained in minimal media (M9) supplemented with 50 μg/ml kanamycin and 100 μg/ml ampicillin. The media were changed every day by transferring the disc to new plate. After 3 days, chemoluminescence activity of the established biofilm was measured using a Typhoon™ imaging scanner (General Electric Healthcare Life Sciences) and ImageQuant TL software (Amersham Biosciences, Sunnyvale, Calif.). The measure luminescence directly correlates with the metabolic activity of the biofilm.
Luminescence was measured at day 0 and was used as the control. Following the measurement of luminescence at day 0, each disc was treated with one of the following—media alone (control) and media containing:
Luminescence was measured every 24 hours followed by replacing the media. Thus, every 24 h following the measurement of the luminescence, 10 μl each of the different solutions was applied to the plate and the biofilm disc was placed on top of the drop everyday. The quantitative analysis of the biofilm luminescence from each day was used to compare the biofilm activity after treatment with the different treatments.
The experiments were repeated using the same E. coli strain csrA luxCDABE kan^r and protocols. Biofilm discs were pulsed with media alone (control) and media containing: […]

[2] = Shelf life of purified DispersinB; format: physicochemical
[3] = test system: S. epidermidis biofilm; assay: Dispersal of S. epidermidis biofilm aggregates in a tube; format: cell-based; conditions: scraped biofilm cell aggregates in tube treated with DispersinB
Description: The biofilm growth from the surface was scraped from the bottom of the tube and transferred to another tube (FIG. 2). Under these condition cells formed a sticky aggregate that rapidly settle to the bottom of the tube.

[4] = DispersinB enzyme activity; format: biochemical; conditions: recombinant protein purified from an overexpressing strain of E. coli
Experimental: Reagents. Recombinant dispersinB protein was purified from an overexpressing strain of E. coli as previously described (Kaplan et al., J. Bacteriol. 2003, 185: 4693-4698). […] Sodium dodecyl sulfate (SDS) was purchased from Fluka (St. Gallen, Switzerland). Phosphate-buffered saline (PBS; 138 mM NaCl, 10 mM phosphate, 2.7 mM KCl, pH 7.4) was purchased from Sigma Chemical Company (St. Louis, Mo., USA).

[5] = test system: A. actinomycetemcomitans CU1000 biofilms; assay: Biofilm killing assay; format: cell-based; conditions: DispersinB alone, 20 μg/mL
Experimental: Biofilm Killing Assay. […] Tubes were vortexed for 10 s, and 20 μL aliquots of the detached biofilms were transferred to the wells of a flat-bottomed 96-well microtiter plate containing 180 μL of fresh broth. Five serial dilutions (20 μL into 180 μL) were performed directly into adjacent wells. Plates were incubated for 48 h and then rinsed and stained with crystal violet as described above. Wells containing 30-300 biofilm colonies were photographed under a dissecting microscope and counted. In some assays, biofilms were pre-treated with 1 mL of DispersinB™ (20 μg/mL in PBS) for 5 min prior to the SDS treatment. In these assays, a 100 μL quantity of SDS in PBS (at 10 times the test concentration) was added directly to the DispersinB™-treated cell suspension and mixed. After 5 min, tubes were vortexed briefly, and 20-μL aliquots of culture were enumerated as described above. Killing assays were performed in duplicate tubes on at least 5 separate occasions, with similar results.

[6] = Table 3, phage 10^8, treatment renewed every 24 h
[7] = Table 4, repeated experiment, BisEDT 50 μg/ml, phage cocktail 10^8

B1: DispersinB™: 381 amino acid soluble β-N-acetylglucosaminidase encoded by dspB of A. actinomycetemcomitans; mature polypeptide SEQ ID NO:11 (protein)
chain: NCCVKGNSIYPQKTSTKQTGLMLDIARHFYSPEVIKSFIDTISLSGGNFLHLHFSDHENYAIESHLLNQRAENAVQGKDGIYINPYTGKPFLSYRQLDDIKAYAKAKGIELIPELDSPNHMTAIFKLVQKDRGVKYLQGLKSRQVDDEIDITNADSITFMQSLMSEVIDIFGDTSQHFHIGGDEFGYSVESNHEFITYANKLSYFLEKKGLKTRMWNDGLIKNTFEQINPNIEITYWSYDGDTQDKNEAAERRDMRVSLPELLAKGFTVLNYNSYYLYIVPKASPTFSQDAAFAAKDVIKNWDLGVWDGRNTKNRVQNTHEIAGAALSIWGEDAKALKDETIQKNTKSLLEAVIHKTNGDE
modifications: Actinobacillus actinomycetemcomitans
- luminescence, Day 0 ([1]; Table 3, Day 0, measured before treatment (baseline)): 948.72 RLU
- luminescence, Day 1 [1, 6]: 1167.19 RLU
- luminescence, Day 2 [1, 6]: 1297.42 RLU
- luminescence, Day 3 [1, 6]: 1487.76 RLU
- luminescence, Day 4 [1, 6]: 1550.01 RLU
- luminescence, Day 1 [1, 7]: 2137.73 RLU
- luminescence, Day 2 [1, 7]: 1911.9 RLU
- luminescence, Day 3 [1, 7]: 2982.02 RLU
- luminescence, Day 4 [1, 7]: 2032.06 RLU
- luminescence, Day 0 ([1]; Table 4, repeated experiment, Day 0, before treatment (baseline)): 1815.26 RLU
- course of biofilm luminescence (RLU) / metabolic activity over time ([1]; over 4 days, result in words): growth similar to the control
- shelf life [2]: approximately 12 months
- dispersal of S. epidermidis biofilm [3]: detaches the biofilm
- specific activity [4]: ~10^3 units per mg of protein
- killing of A. actinomycetemcomitans biofilms ([5]; 5 min or 30 min): did not significantly kill
- reduction in the number of CFU/tube ([5]; 30 min, versus mock-treated controls): little or no reduction
